From the supplement of paper PMC9170038

Test system: MS2 coat protein
Experiment: apparent KD of MS2 coat protein; designed switch direction (-1 OFF switch, 1 ON switch): -1; higher = weaker reporter binding
Method in brief: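 SNAP-549-labelled MS2 coat protein was titrated, doubling from 0.7 or 1.5 nM to 3 µM, over designed RNA switches transcribed on Illumina chips by stalled E. coli RNA polymerase. Runs were done without input, with 200 uM small-molecule ligand, or with an oligonucleotide input. Apparent KD is the per-design median over clusters of curve-fitted normalised fluorescence.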

[1] = input ligand: microRNA oligo, concentration not stated
[2] = Eterna round: R95, input ligand: FMN 200 uM
[3] = Eterna round: R95, input ligand: microRNA oligo, concentration not stated
[4] = Eterna round: R95, input ligand: none

Sequence | apparent KD of MS2 coat protein (input ligand: FMN 200 uM) [nM] | apparent KD of MS2 coat protein (input ligand: none) [nM] | apparent KD of MS2 coat protein [1] [nM] | apparent KD of MS2 coat protein [2] [nM] | apparent KD of MS2 coat protein [3] [nM] | apparent KD of MS2 coat protein [4] [nM]
CUAACAUGCUGGUGAUCAUACAUGAGGAUCACCCAUGUAACAAGCUUUUUGUUCGUCUUAUAAGAUCACCAGCAUGU [Stov1/9-B3] (Eterna round: R97, puzzle: Sensor, turn-off variant 1) | 13.8 | 18.2 |  |  |  | 
ACUGACAUGAGGAUCACCCAUGUAGAUGUGUUCGCAAGCCUCUAGGAUAUAUCUAACCUACCCGGAUAGAAGGAGAGGUUCCCU [Eternabot solution 9] (Eterna round: R96, puzzle: Exclusion NG 3) | 25.2 | 31.7 | 21.1 |  |  | 
AUAUUGUGAGGAUAUGAACUUAGUAUCGAAAGAAACUAAGUUCAGAAGGCACAUGAGGAUCACCCAUGUUUCUC [Long static hairpin v10] (Eterna round: R97, puzzle: Exclusion 4) | 566 | 63.2 |  |  |  | 
AGGUGAUAUCUGUCGAUGGACAUGAGGAUCACCCAUGUGAGCUUUUUGCUCGUCUUAUAAACCGGUGACAGACCUUC [Sensor v3, turn-off variant 1 (MOD of Zalaso)] (puzzle: Sensor v3, turn-off variant 1) |  |  |  | 49.8 | 20.6 | 69.4
AAAAGUUAAGGAUAUACUUGAGGAUCACCCAAGUAGGUGGCUUCAGCCGGGAAACGGCGUAGAAGGUAGCAGAA [Atorin] (Eterna round: R97, puzzle: Exclusion 3) | 65.2 | 60.5 |  |  |  | 
UACACUGCAUGAGGAUCAAACAUGAGGAUCACCCAUGUAUAACAAGCUUUUUGCACGUCUUAUAAUUAUGUAGUGUA [Electric Eye 14 - Jieux - Sensor, turn-off variant 1] (Eterna round: R97, puzzle: Sensor, turn-off variant 1) | 15.3 | 16.2 |  |  |  | 
ACGUGAGCUGAGGAUAUGCCACUAGCCCGCCUGGCAGAAGGCAGUACAUGAGGAUCACCCAUGUGCGUUGGGUG [Leintice] (Eterna round: R97, puzzle: Exclusion 6) | 334 | 335 |  |  |  | 
GGGCAGGGAGGAUAUGUAUCGCACUACAUGAGGAUCACCCAUGUGCCUUUUGUGACGUGGACAGAAGGUCCUGCCG [Eternabot (L1) Solution 17] (Eterna round: R97, puzzle: Exclusion 5) | 129 | 193 |  |  |  | 
CAUGAUCUUCGGAUCAUGUACAUGAGGAUCACCCAUGUGACGAGUUGAUCCUCAUACAAGCUUUUUGCUCGUCUUAU [Sensor v3 - Turn-off variant 1 - 15] (puzzle: Sensor v3, turn-off variant 1) |  |  |  | 26.8 | 16.7 | 24.4
GUCACAUGGGUAUAGGAUCACAUGAGGAUCACCCAUGUGACUAACAAGCUUUUUGCUCGUCUUAUGUCUAUGUGAAU [Stov1/18-A2] (Eterna round: R97, puzzle: Sensor, turn-off variant 1) | 26.2 | 32.4 |  |  |  | 
UUUUAACAAGCGAGGUCCUACAUGAGGAUCACCCAUGUAUGUCAUGGAUUCCAUGGUCUUUUUGCUCGUCUUGUGUG [jl TITIN mod 8] (Eterna round: R97, puzzle: Sensor, turn-off variant 1) | 103 | 105 |  |  |  | 
GAUGUGGGUUUUCAGAGUAACAUGAGGAUCACCCAUGUAGAAGUUGGAGGGAUCAAGCUUUUUGGUCGUCAUAUGUG [JR_SV3TOV1_Sub051] (puzzle: Sensor v3, turn-off variant 1) |  |  |  | 442 | 511 | 509
UCGGCGCGAGGAUAUACGUUUGCUUUUUGGGAUCGUUGCGUACAUGAGGAUCACCCAUGUAGAAGGCGCGCCGC [Apr-15 SS2-26] (puzzle: Exclusion 2) |  |  |  |  | 15.9 | 
AAACACGGAGGAUAUACAGGUUCAGGAAACCGAACCGGCUGACAUGAGGAUCACCCAUGUAGAAGGCCGAAAUA [EX2 A.23] (Eterna round: R97, puzzle: Exclusion 2) | 19.5 | 20.9 |  |  |  | 
CAGUACAGAGGAUAUACAUGAGGAUCACCCAUGUGUUCCAGCUAGGAGACUAGCAAGUGUAGAAGGCUGUACUG [Mat - Exclusion 3 - JL Mod - D8] (Eterna round: R97, puzzle: Exclusion 3) | 592 | 405 |  |  |  | 
CUCCAGACAGGAUAUACGAGGCUGUGUUCCCAUUAUAGGACACAUGAGGAUCACCCAUGUAGAAGGGUCAAUGG [Eternabot (L1) Solution 28] (Eterna round: R97, puzzle: Exclusion 2) | 286 | 742 |  |  |  | 
GCAGGAUAAGUGAGGAUAUACCUAUGGAUACAUAGGUAGAAGGCACAUGAGGAUCACCCAUGUUCCUUACCUGC [Fiskers BMX 4 - 66] (puzzle: Brourd's mod of Exclusion 4) |  |  |  | 42 | 11.5 | 13

Sequence | apparent KD of MS2 coat protein (input ligand: FMN 200 uM) [nM] | apparent KD of MS2 coat protein (input ligand: none) [nM] | apparent KD of MS2 coat protein [1] [nM] | apparent KD of MS2 coat protein [2] [nM] | apparent KD of MS2 coat protein [3] [nM] | apparent KD of MS2 coat protein [4] [nM]
GAGUGACAUGAGGAUCACCCAUGUGAGGAUAUCGGACGGACCAAAUUAACAACAAACGCGAGAAGGCACAUCGG [Exclusion 1 V19] (puzzle: Exclusion 1) |  |  |  |  | 74.9 | 
CGCUAAGCUAUGCUCGUCAACAUGAGGAUCACCCAUGUGCACUACGGAAGGUACACAACGUACCAAAGACCUCAAAG [Eternabot (Original) Solution 27] (Eterna round: R97, puzzle: Sensor, turn-off variant 1) | 185 | 119 |  |  |  | 
AAGAAACAUGAGGAUCACCCAUGUGAGGAUAUGAGUAAGAAAAGAAAAGAAAGAAGAGUCAGAAGGCACAAAGG [salish99-ex1_r3_060] (puzzle: Exclusion 1) |  |  |  | 49.5 | 35.4 | 41.5
UAAUUUUUAGUAAGGAUAUCGGUCCCAAGGGACAACGAGAAGGUACAUGAGGAUCACCCAUGUGAAAUAAGAAU [Mod of Zala 4 - Jieux - Brourd's Mod of Exclusion 4] (Eterna round: R97, puzzle: Brourd's mod of Exclusion 4) | 27.9 | 17.3 |  |  |  | 
GACCCACAUGAGGAUCACCCAUGUCAGGAUAUGCAGUUGGAUGCGUCAGAUUUCCAUAGCAGAAGGGAUCUGGC [Eternabot (Original) Solution 14] (Eterna round: R97, puzzle: Exclusion 1) | 16.5 | 18.2 |  |  |  | 
GGCACACAUGAGGAUCACCCAUGUGAGGAUAUGGUGCGAUCGUCGAAAGACGAUAGCACUAGAAGGCACAUGCC [Eli x1 4.06] (Eterna round: R97, puzzle: Exclusion 1) | 28.2 | 16.1 |  |  |  | 
GAGGUGUUAGGAUAUCGGAGAUGGAGACCAACGGGAUGAGCCGAGAAGGAACAUGAGGAUCACCCAUGUAGGUG [JR_Exclu4_Sub032] (puzzle: Exclusion 4) |  |  |  | 345 | 755 | 763
AGUCGUAGACAGGAUAUGCGGCUAAUAAAUAAAGCAGAAGGGUCUACUUGAGGAUCACCCAAGUGGGCGGUCAA [jl-ex6-4.21 ViennaUCT mod] (Eterna round: R97, puzzle: Exclusion 6) | 186 | 51.8 |  |  |  | 
AAGGAUAGAGGAUAUACGUAGAUACAGAUUCAUGUAGAACUACAUGAGGAUCACCCAUGUAGAAGGCUAUCCUA [Fiskers Ex 2 - 6] (puzzle: Exclusion 2) |  |  |  |  | 26.5 | 
GAUGUGGGUUUUCAGAGUAACAUGAGGAUCACCCAUGUAGAAGUUGGAGGGAUCAAGCUUUUUGGUCGUCAUAUGUG [JR_SV3TOV1_Sub051] (Eterna round: R96, puzzle: Sensor v3, turn-off variant 1) | 603 | 588 | 358 |  |  | 
AUUUAGUGAGGAUAUGUGGCUUCGAUCGUGAGAUCGAGGCUACAGAAGGCACAUGAGGAUCACCCAUGUUCCUG [salish99_ex4_r4_113] (Eterna round: R97, puzzle: Exclusion 4) | 75.7 | 17.5 |  |  |  | 
GAGAAGGUAGGAUAUACGAAGAAAGAGGGUAGUAAUAAUACACAUGAGGAUCACCCAUGUAGAAGGACCAAGAG [Mat - Exclusion 2 - Mod of my Tesla design - D45] (puzzle: Exclusion 2) |  |  |  | 35.9 | 24.7 | 21.7
GUGAAGUGAGGAUAUACGAGAGAGGCUGAACCUGGAGAGAAGUAGAAGGCACAUGAGGAUCACCCAUGUUAGGA [JR_Exclu4_Sub021] (puzzle: Exclusion 4) |  |  |  |  | 38 | 
AGAUGUAGAUACCGAUCCUACAUGAGGAUCACCCAUGUAGCUAGACGUGCGGGCGGCGCUCGUCAGACUACCAGUAG [salish99_TOv1_r3_094] (puzzle: Sensor v3, turn-off variant 1) |  |  |  | 271 | 214 | 371
GGUUGGCGAGGAUAUACAUGAGGAUCACCCAUGUGAAAAUAAAGUGAGGAAAAGAAAAGUAGAAGGCGCUGACG [Mat - Exclusion 3 - Mod of Salish D55] (puzzle: Exclusion 3) |  |  |  | 158 | 72.7 | 118
GUCCUGGACUAUCACAAGCACAUGAGGAUCACCCAUGUCAUGGGUAGAUCCAUAAAUAAAGAUACUGCUCGUCUUAU [Cac sensor turnoff var1 sub5] (Eterna round: R97, puzzle: Sensor, turn-off variant 1) | 177 | 303 |  |  |  | 
